In the supplement of paper PMC7877785:
± gives the uncertainty stated by the source.

Assay: self-splicing fitness, log relative to wild type (ln ratio); higher = more splicing; Tetrahymena group I intron in knt gene, E. coli kanamycin selection, DiMSum; sequences stand for … in CUCUCU…GGAGGGAAAAGUUAUCAGGCAUGCACCUGGUAGCUAGUCUUUAAACCAAUAGAUUGCAUCGGUUUAAAAGGCAAGACCGUCAAAUUGCGGGAAAGGGGUCAACAGCCGUUCAGUACCAAGUCUCAGGGGAAACUUUGAGAUGGCCUUGCAAAGGGUAUGGUAAUAAGCUGACGGACAUGGUCCUAACCACGCAGCCAAGUCCUAAGUCAACAGAUCUUCUGUUGAUAUGGAUGCAGUUCACAGACUAAAUGUCGGUCGGGGAAGAUGUAUUCUUCUCAUAAGAUAUAGUCGGACCUCUCCUUAAUGGGAGCUAGCGGAUGAAGUGAUGCAACACUGGAGCCGCUGGGAACUAAUUUGUAUGCGAAAGUAUAUUGAUUAGUUUUGGAGUACUCGUGGUCG
Procedure, shortened: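 DiMSum derived fitness as the error-weighted combination of fold changes across replicates, kanamycin versus no kanamycin, normalised to wild type. E. coli BL21(DE3) held the library, which randomised all eight P1ex-region intron nucleotides within the knt kanamycin-resistance gene on pET-22b(+). Six replicate transformations grew overnight at 37°C or 30°C on LB agar with or without 25 μg/mL kanamycin, also containing 100 μg/mL carbenicillin, 50 μM IPTG and 0.2% rhamnose, and pooled colonies were amplicon-sequenced on an Illumina HiSeq 2500.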

Row | Sequence | self-splicing fitness (ln) (30 °C) | self-splicing fitness (ln) (37 °C)
1 | UUGAAGCAAUAUUACGAGCG | -0.107 ± 0.089 | 0.65 ± 0.14
2 | UUGAAGCAAUAUUACGAUCG | -0.0761 ± 0.14 | 0.264 ± 0.19
3 | UUGAAGCAAUAUUACGAUGU | -1.61 ± 0.067 | -0.962 ± 0.11
4 | UUGAAGCAAUAUUACGCAUU | -3.34 ± 0.23 | -3.18 ± 0.25
5 | UUGAAGCAAUAUUACGCCAG | -0.461 ± 0.14 | 0.214 ± 0.21
6 | UUGAAGCAAUAUUACGCUCU | -1.82 ± 0.12 | -0.916 ± 0.12
7 | UUGAAGCAAUAUUACGCUGA | -1.61 ± 0.15 | -0.574 ± 0.19
8 | UUGAAGCAAUAUUACGGAGC | -2.81 ± 0.21 | -2.5 ± 0.41
9 | UUGAAGCAAUAUUACGGCAC | -0.928 ± 0.13 | -0.814 ± 0.17
10 | UUGAAGCAAUAUUACGGUAA | -0.968 ± 0.1 | -0.399 ± 0.12
11 | UUGAAGCAAUAUUACGGUAU | -2.49 ± 0.11 | -1.5 ± 0.18
12 | UUGAAGCAAUAUUACGGUCU | -0.0588 ± 0.058 | -0.0885 ± 0.075
13 | UUGAAGCAAUAUUACGGUGU | -3.13 ± 0.17 | -1.16 ± 0.15
14 | UUGAAGCAAUAUUACGUACC | -3.61 ± 0.41 | -1.07 ± 0.35
15 | UUGAAGCAAUAUUACGUAGA | -1.28 ± 0.12 | -0.894 ± 0.15
16 | UUGCAGCAAUAUUACGAACU | -2.25 ± 0.23 | -2.11 ± 0.22
17 | UUGCAGCAAUAUUACGAAUU | -2.18 ± 0.18 | -0.985 ± 0.19
18 | UUGCAGCAAUAUUACGACGA | 0.0944 ± 0.089 | 0.407 ± 0.12
19 | UUGCAGCAAUAUUACGAGUU | -4.24 ± 0.27 | -3.36 ± 0.37
20 | UUGCAGCAAUAUUACGAUAU | -4.06 ± 0.32 | -1.78 ± 0.24
21 | UUGCAGCAAUAUUACGAUCC | -3.64 ± 0.47 | -1.68 ± 0.35
22 | UUGCAGCAAUAUUACGCACA | -0.577 ± 0.11 | 0.406 ± 0.15
23 | UUGCAGCAAUAUUACGCACG | -1.2 ± 0.13 | -1.24 ± 0.12
24 | UUGCAGCAAUAUUACGCAUA | -1.6 ± 0.13 | -0.643 ± 0.12
25 | UUGCAGCAAUAUUACGCGCA | -1.84 ± 0.14 | -0.231 ± 0.18

Row | Sequence | self-splicing fitness (ln) (30 °C) | self-splicing fitness (ln) (37 °C)
26 | UUGCAGCAAUAUUACGCGCG | -1.88 ± 0.12 | -1.29 ± 0.14
27 | UUGCAGCAAUAUUACGCGGA | -1.29 ± 0.12 | -0.882 ± 0.13
28 | UUGCAGCAAUAUUACGCUAC | -0.542 ± 0.29 | 
29 | UUGCAGCAAUAUUACGGAGC | -2.2 ± 0.15 | 
30 | UUGCAGCAAUAUUACGGCAA | -3.02 ± 0.23 | -2.27 ± 0.24
31 | UUGCAGCAAUAUUACGGCGC | -1.8 ± 0.24 | -1.84 ± 0.31
32 | UUGCAGCAAUAUUACGUAGA | -1.46 ± 0.074 | -0.271 ± 0.079
33 | UUGCAGCAAUAUUACGUAUG | -1.8 ± 0.081 | -1.11 ± 0.12
34 | UUGCAGCAAUAUUACGUCGA | -0.56 ± 0.09 | 0.0432 ± 0.13
35 | UUGCAGCAAUAUUACGUGCG | -3.18 ± 0.16 | -1.43 ± 0.14
36 | UUGCAGCAAUAUUACGUUGU | -3.23 ± 0.2 | -2.81 ± 0.2
37 | UUGCAGCAAUAUUACGUUUA | -1.31 ± 0.096 | -1.02 ± 0.088
38 | UUGGAGCAAUAUUACGAAGU | -3.34 ± 0.37 | 0.521 ± 0.31
39 | UUGGAGCAAUAUUACGACGU | -1.85 ± 0.48 | 
40 | UUGGAGCAAUAUUACGAGAA |  | -1.78 ± 0.44
41 | UUGGAGCAAUAUUACGAGGC | -3.52 ± 0.4 | 
42 | UUGGAGCAAUAUUACGAGUC |  | -3.03 ± 0.43
43 | UUGGAGCAAUAUUACGAUCA | 0.364 ± 0.35 | -0.451 ± 0.45
44 | UUGGAGCAAUAUUACGAUGA | -0.635 ± 0.11 | -0.543 ± 0.11
45 | UUGGAGCAAUAUUACGAUGU | -1.71 ± 0.44 | -1.83 ± 0.35
46 | UUGGAGCAAUAUUACGCACG | -1.33 ± 0.17 | -1.92 ± 0.29
47 | UUGGAGCAAUAUUACGCCCG | -1.94 ± 0.45 | 
48 | UUGGAGCAAUAUUACGCGGA |  | -1.08 ± 0.36
49 | UUGGAGCAAUAUUACGCUUG | -2.69 ± 0.3 | -1.25 ± 0.27
50 | UUGGAGCAAUAUUACGGCUG | -2.22 ± 0.28 | 

Row | Sequence | self-splicing fitness (ln) (30 °C) | self-splicing fitness (ln) (37 °C)
51 | UUGGAGCAAUAUUACGGUCA | -1.21 ± 0.16 | -2.65 ± 0.23
52 | UUGGAGCAAUAUUACGGUCG | -2.36 ± 0.28 | 
53 | UUGGAGCAAUAUUACGUAAU | -3.28 ± 0.19 | -2.38 ± 0.31
54 | UUGGAGCAAUAUUACGUAUG | -3.25 ± 0.36 | -1.36 ± 0.37
55 | UUGGAGCAAUAUUACGUCAG | -2.63 ± 0.26 | -0.954 ± 0.2
56 | UUGGAGCAAUAUUACGUUCU |  | -3.09 ± 0.27
57 | UUGUAGCAAUAUUACGAAGG |  | -1.9 ± 0.47
58 | UUGUAGCAAUAUUACGACAU | -0.918 ± 0.015 | -0.322 ± 0.034
59 | UUGUAGCAAUAUUACGAUGG | -1.53 ± 0.16 | -0.75 ± 0.2
60 | UUGUAGCAAUAUUACGCACA | -0.174 ± 0.17 | -0.658 ± 0.22
61 | UUGUAGCAAUAUUACGCAGU |  | -2.1 ± 0.3
62 | UUGUAGCAAUAUUACGCCAG | -0.515 ± 0.14 | -0.137 ± 0.2
63 | UUGUAGCAAUAUUACGCUCG | -0.29 ± 0.14 | -0.456 ± 0.25
64 | UUGUAGCAAUAUUACGCUUA | -1.77 ± 0.25 | -1 ± 0.2
65 | UUGUAGCAAUAUUACGGACC | -2.38 ± 0.25 | -1.46 ± 0.34
66 | UUGUAGCAAUAUUACGGACU | -1.65 ± 0.14 | -0.723 ± 0.16
67 | UUGUAGCAAUAUUACGGAGC | -3.08 ± 0.25 | -2.38 ± 0.29
68 | UUGUAGCAAUAUUACGGCAG | -0.0514 ± 0.14 | 0.374 ± 0.18
69 | UUGUAGCAAUAUUACGGCGA | 0.174 ± 0.1 | 0.227 ± 0.14
70 | UUGUAGCAAUAUUACGGUCA | -0.412 ± 0.17 | -0.486 ± 0.2
71 | UUGUAGCAAUAUUACGGUCG | -0.458 ± 0.12 | -0.593 ± 0.15
72 | UUGUAGCAAUAUUACGGUGC | -2.37 ± 0.45 | -2.07 ± 0.34
73 | UUGUAGCAAUAUUACGUAAG | -2.25 ± 0.17 | -1.02 ± 0.16
74 | UUGUAGCAAUAUUACGUCAA | -0.947 ± 0.16 | -0.538 ± 0.16
75 | UUUAAGCAAUAUUACGACAG | -0.664 ± 0.15 | -0.475 ± 0.2

Row | Sequence | self-splicing fitness (ln) (30 °C) | self-splicing fitness (ln) (37 °C)
76 | UUUAAGCAAUAUUACGACCC | -1.3 ± 0.31 | 0.0123 ± 0.28
77 | UUUAAGCAAUAUUACGACGA | 0.228 ± 0.089 | 0.29 ± 0.11
78 | UUUAAGCAAUAUUACGAGAU | -3.92 ± 0.26 | -0.782 ± 0.16
79 | UUUAAGCAAUAUUACGAGCG | -0.94 ± 0.14 | -0.4 ± 0.17
80 | UUUAAGCAAUAUUACGAUAA | -0.773 ± 0.1 | 0.228 ± 0.13
81 | UUUAAGCAAUAUUACGAUCA | -0.491 ± 0.1 | 0.00531 ± 0.11
82 | UUUAAGCAAUAUUACGAUGA | 0.318 ± 0.13 | -0.175 ± 0.14
83 | UUUAAGCAAUAUUACGCCCU | -0.119 ± 0.24 | 0.0801 ± 0.28
84 | UUUAAGCAAUAUUACGCCUG | -0.642 ± 0.14 | -0.13 ± 0.14
85 | UUUAAGCAAUAUUACGCGCU | -1.15 ± 0.18 | -0.609 ± 0.2
86 | UUUAAGCAAUAUUACGCGGC |  | -2.78 ± 0.31
87 | UUUAAGCAAUAUUACGCGGG | -1.81 ± 0.13 | -1.63 ± 0.14
88 | UUUAAGCAAUAUUACGCGUG | -1.15 ± 0.13 | -0.368 ± 0.14
89 | UUUAAGCAAUAUUACGCUCA | -0.755 ± 0.15 | -0.395 ± 0.17
90 | UUUAAGCAAUAUUACGCUGU | -3.57 ± 0.21 | -1.79 ± 0.18
91 | UUUAAGCAAUAUUACGGACG | -0.647 ± 0.15 | 0.235 ± 0.19
92 | UUUAAGCAAUAUUACGGCAU | -1.59 ± 0.11 | -0.239 ± 0.12
93 | UUUAAGCAAUAUUACGGCUG | -0.528 ± 0.13 | -0.292 ± 0.16
94 | UUUAAGCAAUAUUACGGGAA | -1.63 ± 0.094 | -0.806 ± 0.095
95 | UUUAAGCAAUAUUACGUAGA | -0.521 ± 0.098 | 0.0733 ± 0.14
96 | UUUAAGCAAUAUUACGUCUU | -2.57 ± 0.15 | -1.81 ± 0.16
97 | UUUAAGCAAUAUUACGUGUA | -1.88 ± 0.12 | -0.799 ± 0.12
98 | UUUAAGCAAUAUUACGUUAC | -3.76 ± 0.3 | -3.05 ± 0.26
99 | UUUAAGCAAUAUUACGUUCU | -1.53 ± 0.11 | -0.963 ± 0.11
